Test results as given in paper PMC8521305.

Molecular target: glycophorin A (GlyA) TMH
Test: SEC

## glycophorin A (GlyA) TMH (domain or fragment)
  stoichiometry N (helices per nanodisc): 2
